In patent publication US20230416351A1 (Novartis, published 2023):

Target: T1, recombinant VEGF165 protein (human, UniProt P15692 27-191)
T1 construct: mature; the 165-residue isoform is meant; also called VEGF-A
Experiment: SPR in vitro binding, drug and recombinant VEGF165, 37 C
Protocol: Drug-specific parameters used are defined based upon which drug(s) is included in the specific simulation. These values are shown in Table 2 for brolucizumab, aflibercept, and ranibizumab. The drug:VEGF binding parameter values (the dissociation rate constant “koff” and the equilibrium binding constant “Kd”) were defined on the basis of a surface plasmon resonance (SPR) in vitro binding experiment with drug and recombinant VEGF165 protein at 37° C. according to manufacturer's instructions. The hydrodynamic radius values for drug (“rh_R”) and associated drug:VEGF complexes (“rh_VR” and “rh_RVR”) were sourced from literature reports (Caruso et. al., Mol. Pharmaceutics 2020, 17, 695-709) or from computational structure models of drug and VEGF. This includes estimated hydrodynamic radius values for the heterogenous complexes consisting of one VEGF dimer and two different VEGF antagonists (“rh_ROVR”). Drug-independent parameters used are used to describe VEGF production and distribution within and out of the eye, as well as general biophysical properties of the eye such as permeability coefficients for the Inner Limiting Membrane (ILM) and Retinal Pigment Epithelium (RPE) and the clearance rate from the aqueous chamber.

T1 sequence (P15692 other isoform, or with tags, fused parts or gaps): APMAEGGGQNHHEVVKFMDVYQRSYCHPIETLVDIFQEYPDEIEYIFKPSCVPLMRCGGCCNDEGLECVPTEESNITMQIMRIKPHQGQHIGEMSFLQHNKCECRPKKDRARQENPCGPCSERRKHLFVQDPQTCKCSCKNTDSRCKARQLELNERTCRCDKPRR

B1: brolucizumab (scFv)
scFv: MEIVMTQSPSTLSASVGDRVIITCQASEIIHSWLAWYQQKPGKAPKLLIYLASTLASGVPSRFSGSGSGAEFTLTISSLQPDDFATYYCQNVYLASTNGANFGQGTKLTVLGGGGGSGGGGSGGGGSGGGGSEVQLVESGGGLVQPGGSLRLSCTASGFSLTDYYYMTWVRQAPGKGLEWVGFIDPDDDPYYATWAKGRFTISRDNSKNTLYLQMNSLRAEDTAVYYCAGGDHNSGWGLDIWGQGTLVTVSS
notes: Humanized single-chain Fv (VL-linker-VH), ~26 kDa; also called Beovu; VEGF antagonist A
Kd: 101 pM
